Residue numbers refer to the chain shown, from its start. Values belong to the binder of their own block, whether it stands above or below them.
Assays:
[1] = target: T1, recombinant CD47 (recCD47), SinoBiological 12283-H27H-B, biotinylated (human, UniProt Q08722 19-139, biotinylated (AVI-tag)); assay: SPR Biacore S200, single-cycle (top 80 nM), recCD47 on SA chip 1330 RU, antibody as analyte, 1:1 model
T1 construct: Bought protein, 17 kDa; At 17 kDa it can only be a part of it; also called recombinant biotinylated CD47; not shown: C-terminal His- and AVI-tag
T1 sequence (Q08722 19-139 limits assumed): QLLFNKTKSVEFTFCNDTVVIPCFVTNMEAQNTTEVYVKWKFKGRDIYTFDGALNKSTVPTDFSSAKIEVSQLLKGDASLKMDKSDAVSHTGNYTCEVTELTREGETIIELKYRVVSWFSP

[2] = target: T2, human CD47 on the surface of cells (human cancer cell lines and human red blood cells) (human, UniProt Q08722 19-323); assay: flow cytometry, FITC-conjugated antibody on CCRF-CEM cells
T2 construct: Native CD47 of human cell lines (Jurkat, Reh, CCRF-CEM and others) and of RBCs from healthy donors; also called cell-surface CD47
T2 sequence (Q08722 19-323 limits assumed): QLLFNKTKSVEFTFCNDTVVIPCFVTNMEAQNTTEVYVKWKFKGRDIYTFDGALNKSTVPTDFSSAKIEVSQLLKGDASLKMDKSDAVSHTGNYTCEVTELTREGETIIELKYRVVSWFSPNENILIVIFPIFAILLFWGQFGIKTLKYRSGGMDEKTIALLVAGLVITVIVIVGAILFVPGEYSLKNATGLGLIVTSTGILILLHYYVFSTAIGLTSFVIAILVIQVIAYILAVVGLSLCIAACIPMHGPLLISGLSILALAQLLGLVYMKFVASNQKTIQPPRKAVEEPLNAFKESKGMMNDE
Experimental: (§1) PBS-washed cancer cell lines or RBCs were pelleted and washed with washing buffer (3% (w/v) BSA, 1% (w/v) sodium azide in PBS) and incubated with Human BD Fc Block for 10 minutes before being plated into a round-bottom 96 well plate (2.5×10⁵ cells per well). Antibodies were conjugated with FITC using the FITC conjugation kit from Abcam. […] All samples were prepared in duplicates. Cells were washed three times and resuspended in cold washing buffer. Cells were kept on ice until analyses by flow cytometry. Excitation wavelength FITC: 488 nm, detection: 530/30 nm.
(§2) 4-parameter curve fitting was performed using GraphPad Prism

[3] = target: T2, human CD47 on the surface of cells …; assay: flow cytometry, FITC-conjugated antibody on Reh cells
Experimental: as §1, §2

[4] = target: T1, recombinant CD47 (recCD47), …; assay: SPR Biacore S200, multi-cycle (top 50 nM), run 1, recCD47 on SA chip 1330 RU, antibody as analyte, 1:1 model
[5] = target: T2, human CD47 on the surface of cells …; assay: flow cytometry, FITC-conjugated antibody on Jurkat cells
Experimental: as §1, §2

[6] = target: T1, recombinant CD47 (recCD47), …; assay: SPR Biacore S200, multi-cycle (top 50 nM), run 2, recCD47 on SA chip 1330 RU, antibody as analyte, 1:1 model
[7] = target: T1, recombinant CD47 (recCD47), …; assay: SPR Biacore S200, single-cycle (top 1 uM), recCD47 on SA chip 1330 RU, antibody as analyte, 1:1 model
[8] = target: T2, human CD47 on the surface of cells …; assay: flow cytometry, FITC-conjugated antibody on human RBCs
Experimental: as §1, §2

[9] = target: T1, recombinant CD47 (recCD47), …; assay: SPR Biacore S200, multi-cycle (top 50 nM), recCD47 on SA chip 1330 RU, antibody as analyte, 1:1 model
[10] = target: T1, recombinant CD47 (recCD47), …; assay: SPR Biacore S200, single-cycle, recCD47 on SA chip 700 RU, antibody as analyte, 25 C, 1:1 model
[11] = target: T1, recombinant CD47 (recCD47), …; assay: SPR Biacore S200, single-cycle, recCD47 on SA chip 100 RU, fragment as analyte, 25 C, 1:1 model
[12] = target: T1, recombinant CD47 (recCD47), …; assay: SPR Biacore S200, single-cycle, recCD47 on SA chip 100 RU, antibody as analyte, 25 C, 1:1 model;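 also: antibodies were injected over the captured CD47 at a series of concentrations, and KD was derived as the dissociation rate constant divided by the association rate constant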
Experimental: The binding affinity of the huCO-mAbs to CD47 was determined via surface plasmon resonance (SPR) on a Biacore S200 system. Recombinant biotinylated CD47 was immobilized on an SA streptavidin chip to a level of 100 RU (in 10 mM NaAc pH5.0). The huCO-mAbs reacted with recombinant CD47 at gradient concentrations.
A 1:1 binding model was used to fit the data. […] The affinity constant KD is calculated as kd/kₐ.

[13] = target: T2, human CD47 on the surface of cells …; assay: flow cytometry on Jurkat cells, goat anti-human FITC, MFI against log µg/ml
Experimental: PBS-washed cancer cell lines or RBCs were pelleted and washed with washing buffer (3% (w/v) BSA, 1% (w/v) sodium azide in DPBS) and incubated with Human BD Fc Block for 10 minutes before being plated into a round-bottom 96 well plate (2.5×10⁵ cells per well). […] All samples were prepared in duplicates. The cells were washed twice in washing buffer, followed by 30 minutes incubation with Goat anti-human FITC staining buffer (Goat anti-human FITC diluted 1:200 in washing buffer) on ice, protected from light with slight agitation. The cells were analyzed by flow cytometry after three washes in washing buffer. Excitation wavelength FITC: 488 nm, detection: 530/30 nm.

B1: AO-A IgG1 (AO-176 candidate A) (antibody, V domains shown)
VH: QVQLVQSGAEVKKPGASVKVSCKASGYTFTNYWIHWVRQAPGQGLEWMGYTDPRTDYTEYNQKFKDRVTMTRDTSTSTVYMELSSLRSEDTAVYYCARGGRVGLGYWGQGTLVTVSS
VL: DIVMTQSPDSLAVSLGERATINCRSSQNIVQSNGNTYLEWYQQKPGQPPKLLIYKVFHRFSGVPDRFSGSGSGTDFTLTISSLQAEDVAVYYCFQGSHVPYTFGQGTKLEIKR
notes: Comparator from WO2020/198370; also called AO-A.1; AO-176 A
Kd [1]: 1000 pM | koff [1]: 0.0008 s⁻¹ | kon [1]: 800000 M⁻¹ s⁻¹ | EC50 [2]: 0.000285 µg/mL | EC50 [3]: 0.34 µg/mL | Kd [4]: 1000 pM | koff [4]: 0.001 s⁻¹ | kon [4]: 1.5e+06 M⁻¹ s⁻¹ | EC50 [5]: 0.0303 µg/mL | Kd [6]: 1000 pM | koff [6]: 0.002 s⁻¹ | kon [6]: 1.8e+06 M⁻¹ s⁻¹ | Kd [7]: 1000 pM | koff [7]: 0.0006 s⁻¹ | kon [7]: 500000 M⁻¹ s⁻¹ | EC50 [8]: 2.42 µg/mL

B3: AO-C IgG1 (AO-176 candidate C) (antibody, V domains shown)
VH: B1 VH with A16S, N61A, K65Q, D66G, M70I, R72A, T74E, V79A
VL: B1 VL
notes: Comparator from WO2020/198370; also called AO-C.1; SC-AO-C
Kd [1]: 3000 pM | koff [1]: 0.003 s⁻¹ | kon [1]: 1.2e+06 M⁻¹ s⁻¹ | EC50 [2]: 0.00578 µg/mL | EC50 [3]: 10.5 µg/mL | EC50 [5]: 0.0395 µg/mL | Kd [9]: 6000 pM | koff [9]: ~0.01 s⁻¹ | kon [9]: 2.3e+06 M⁻¹ s⁻¹ | EC50 [8]: 21.8 µg/mL

B4: CO-1.4 antibody (chimeric CO-1 IgG4) (antibody)
heavy: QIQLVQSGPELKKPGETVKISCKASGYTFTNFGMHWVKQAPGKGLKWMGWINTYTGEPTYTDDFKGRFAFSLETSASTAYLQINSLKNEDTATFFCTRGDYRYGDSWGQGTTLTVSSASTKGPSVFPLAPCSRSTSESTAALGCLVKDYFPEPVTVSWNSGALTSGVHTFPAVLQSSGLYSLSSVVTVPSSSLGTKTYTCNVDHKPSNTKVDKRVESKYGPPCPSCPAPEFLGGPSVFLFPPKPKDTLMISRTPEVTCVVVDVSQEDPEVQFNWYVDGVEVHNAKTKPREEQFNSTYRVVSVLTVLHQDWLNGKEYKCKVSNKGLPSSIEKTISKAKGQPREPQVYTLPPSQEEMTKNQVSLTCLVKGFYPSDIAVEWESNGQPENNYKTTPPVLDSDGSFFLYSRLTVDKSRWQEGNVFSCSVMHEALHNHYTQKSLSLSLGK
light: DVVMTQTPLSLPVSLGDQASISCRSSQSLVHSNGKTYLHWYLQKPGQSPKLLIYRVSNRFSGVPDRFSGSGSGTDFTLKISRIEAEDLGVYFCSQSTHVPFTFGSGTKLEIKRTVAAPSVFIFPPSDEQLKSGTASVVCLLNNFYPREAKVQWKVDNALQSGNSQESVTEQDSKDSTYSLSSTLTLSKADYEKHKVYACEVTHQGLSSPVTKSFNRGEC
notes: Chimeric: mouse variable domains of mCO-1 with human IgG4 constant regions; also called SC-CO-1.4
Kd [10]: 3 pM | koff [10]: 4.4e-06 s⁻¹ | kon [10]: 1.5e+06 M⁻¹ s⁻¹

B6: CO207 humanized IgG4 anti-CD47 antibody (antibody, V domains shown)
VH: QVQLVQSGSELKKPGASVKVSCKASGYTFTNFGMHWVRQAPGQGLKWMGWINTYTGEPTYTDDFKGRFVFSLDTSVSTAYLQISSLKAEDTAVYYCTRGDYRYGDSWGQGTTVTVSS
VL: DIVMTQTPLSLSVTPGQPASISCRSSQSLVHSNGKTYLHWYLQKPGQSPQLLIYRVSNRFSGVPDRFSGSGSGTDFTLKISRVEAEDVGVYYCSQSTHVPFTFGQGTKLEIK
notes: also called huCO-mAb
Kd [12]: 15.3 pM | koff [12]: 7.3e-05 s⁻¹ | kon [12]: 4.8e+06 M⁻¹ s⁻¹

B8: CO205 humanized IgG4 anti-CD47 antibody (antibody, V domains shown)
VH: B6 VH with K46E, T97A
VL: B6 VL
notes: also called huCO-mAb
EC50 (read off the curve) [13]: ~0.08 µg/mL | Kd [12]: 56 pM | koff [12]: 0.00046 s⁻¹ | kon [12]: 8.2e+06 M⁻¹ s⁻¹

B9: CO209 humanized IgG4 anti-CD47 antibody (antibody, V domains shown)
VH: B6 VH with K46E, T97A
VL: B6 VL with Q50K
notes: also called huCO-mAb
Kd [12]: 38.6 pM | koff [12]: 0.00032 s⁻¹ | kon [12]: 8.2e+06 M⁻¹ s⁻¹

B10: CO202 humanized IgG4 anti-CD47 antibody (antibody, V domains shown)
VH: B6 VH with K46E
VL: B6 VL with S48P
notes: also called huCO-mAb
Kd [12]: 23 pM | koff [12]: 0.00012 s⁻¹ | kon [12]: 5.3e+06 M⁻¹ s⁻¹

B11: CO213 humanized IgG4 anti-CD47 antibody (antibody, V domains shown)
VH: B6 VH with T97A
VL: B6 VL with S48P
notes: also called huCO-mAb
Kd [12]: 32 pM | koff [12]: 0.00034 s⁻¹ | kon [12]: 1.1e+07 M⁻¹ s⁻¹

B12: CO204 humanized IgG4 anti-CD47 antibody (antibody, V domains shown)
VH: B6 VH with Q43K
VL: B6 VL with S48P
notes: also called huCO-mAb
Kd [12]: 14.9 pM | koff [12]: 8.5e-05 s⁻¹ | kon [12]: 5.7e+06 M⁻¹ s⁻¹

B14: CO211 humanized IgG4 anti-CD47 antibody (antibody, V domains shown)
VH: B6 VH
VL: B6 VL with Q50K
notes: also called huCO-mAb
Kd [12]: 13.5 pM | koff [12]: 6.8e-05 s⁻¹ | kon [12]: 5.1e+06 M⁻¹ s⁻¹

B15: CO208 humanized IgG4 anti-CD47 antibody (antibody, V domains shown)
VH: B6 VH with Q43K
VL: B6 VL
notes: also called huCO-mAb
Kd [12]: 16 pM | koff [12]: 8.1e-05 s⁻¹ | kon [12]: 5e+06 M⁻¹ s⁻¹

B16: CO210 humanized IgG4 anti-CD47 antibody (antibody, V domains shown)
VH: B6 VH with K46E
VL: B6 VL with Q50K
notes: also called huCO-mAb
Kd [12]: 17 pM | koff [12]: 8.3e-05 s⁻¹ | kon [12]: 4.9e+06 M⁻¹ s⁻¹

B18: CO206 humanized IgG4 anti-CD47 antibody (antibody, V domains shown)
VH: B6 VH with K46E
VL: B6 VL
notes: also called huCO-mAb
Kd [12]: 20.5 pM | koff [12]: 0.0001 s⁻¹ | kon [12]: 5.1e+06 M⁻¹ s⁻¹

Continued, values first:

Kd [1]: 2000 pM | koff [1]: 0.001 s⁻¹ | kon [1]: 800000 M⁻¹ s⁻¹ | EC50 [2]: 0.000559 µg/mL | EC50 [3]: 3.1 µg/mL | EC50 [5]: 0.0748 µg/mL | Kd [9]: 3000 pM | koff [9]: 0.004 s⁻¹ | kon [9]: 1.5e+06 M⁻¹ s⁻¹ | EC50 [8]: 3.67 µg/mL
B2: AO-B IgG1 (AO-176 candidate B) (antibody, V domains shown)
VH: EVQLVQSGAEVKKPGESLKISCKGSGYTFTNYWIHWVRQMPGKGLEWMGYTDPRTDYTEYNQKFKDQVTISADKSISTAYLQWSSLKASDTAMYYCARGGRVGLGYWGQGTLVTVSS
VL: B1 VL
notes: Comparator from WO2020/198370; also called AO-B.1; AO-176 B

koff [11]: 4.5e-05 s⁻¹ | kon [11]: 6.9e+06 M⁻¹ s⁻¹
B5: CO-1 F(ab')2 antibody (other)
heavy: QIQLVQSGPELKKPGETVKISCKASGYTFTNFGMHWVKQAPGKGLKWMGWINTYTGEPTYTDDFKGRFAFSLETSASTAYLQINSLKNEDTATFFCTRGDYRYGDSWGQGTTLTVSSASTKGPSVFPLAPSSKSTSGGTAALGCLVKDYFPEPVTVSWNSGALTSGVHTFPAVLQSSGLYSLSSVVTVPSSSLGTQTYICNVNHKPSNTKVDKKVEPKSCDKTHTCPPCPAPELLG
light: B4 light
notes: F(ab')2 fragment, divalent for CD47, based on mCO-1; also called CO F(ab')2; CO-F(ab')2

EC50 (read off the curve) [13]: ~0.07 µg/mL | Kd [12]: 49.9 pM | koff [12]: 0.00043 s⁻¹ | kon [12]: 8.7e+06 M⁻¹ s⁻¹
B7: CO201 humanized IgG4 anti-CD47 antibody (antibody, V domains shown)
VH: B6 VH with K46E, T97A
VL: B6 VL with S48P
notes: also called huCO-mAb

Kd [12]: 16.4 pM | koff [12]: 7.9e-05 s⁻¹ | kon [12]: 4.8e+06 M⁻¹ s⁻¹
B13: CO203 humanized IgG4 anti-CD47 antibody (antibody, V domains shown)
VH: B6 VH
VL: B6 VL with S48P
notes: also called huCO-mAb

Kd [12]: 12.3 pM | koff [12]: 7.2e-05 s⁻¹ | kon [12]: 5.8e+06 M⁻¹ s⁻¹
B17: CO212 humanized IgG4 anti-CD47 antibody (antibody, V domains shown)
VH: B6 VH with Q43K
VL: B6 VL with Q50K
notes: also called huCO-mAb

— patent US20260234246A1 (CAEDO ONCOLOGY, published 2026)
